What all share (assay): cross-linking; glutaraldehyde cross-linking (0.01-0.5%, 0.025% chosen as optimal) of recombinant p53 in solution without DNA, 25°C, Tris or HEPES buffer pH 7.5, 100 mM NaCl, then 4-12% MOPS SDS-PAGE (coomassie, silver stain or immunoblot)
Assay [1] concerns the target recombinant murine p53 (murine) (UniProt P02340).
For assay [2] the target is unchanged. This is another data set of the same source.
In assay [3] the target is murine p53 mutant with the double substitution M340Q/L344R (murine) (UniProt P02340).

Several values for one entry are separate records, joined by “and”; a condition that tells them apart may be missing. Equal entries are not always repeated. Where two headings read alike, the source gives them in different places.

As usually defined, the stoichiometry N is a count of units in the complex or per binding partner.

Take “recombinant murine p53 (from UniProt P02340 1-390) (natural protein)”: the stoichiometry N in assay [1] came to 8; in assay [2] it was 4. On to “murine p53 mutant with the double substitution M340Q/L344R (from UniProt P02340 1-390) (natural protein)”, for which the stoichiometry N in assay [3] was 2 and 4.

The values above are taken from publication PMC5291249.
